# Assay results reported in patent publication US8357833B2, “Corn plants and seed enhanced for asparagine and protein” (priority 2007, dated 2013).
# Like-named read-outs stand apart in the source and are kept apart here.
# Columns and labels:
# [1] = target: T1, Zea mays asparagine synthetase Zm AsnS4 (SEQ ID NO: 51, encoded by SEQ ID NO: 50) (Zea mays, UniProt B5U8J9); experiment: Kinetics of recombinant his-tagged, refolded maize asparagine synthetase AsnS4 (substrate titration, asparagine by HPLC); assay type: biochemical
# T1 construct: 588 aa
# T1 sequence (B5U8J9 1-588): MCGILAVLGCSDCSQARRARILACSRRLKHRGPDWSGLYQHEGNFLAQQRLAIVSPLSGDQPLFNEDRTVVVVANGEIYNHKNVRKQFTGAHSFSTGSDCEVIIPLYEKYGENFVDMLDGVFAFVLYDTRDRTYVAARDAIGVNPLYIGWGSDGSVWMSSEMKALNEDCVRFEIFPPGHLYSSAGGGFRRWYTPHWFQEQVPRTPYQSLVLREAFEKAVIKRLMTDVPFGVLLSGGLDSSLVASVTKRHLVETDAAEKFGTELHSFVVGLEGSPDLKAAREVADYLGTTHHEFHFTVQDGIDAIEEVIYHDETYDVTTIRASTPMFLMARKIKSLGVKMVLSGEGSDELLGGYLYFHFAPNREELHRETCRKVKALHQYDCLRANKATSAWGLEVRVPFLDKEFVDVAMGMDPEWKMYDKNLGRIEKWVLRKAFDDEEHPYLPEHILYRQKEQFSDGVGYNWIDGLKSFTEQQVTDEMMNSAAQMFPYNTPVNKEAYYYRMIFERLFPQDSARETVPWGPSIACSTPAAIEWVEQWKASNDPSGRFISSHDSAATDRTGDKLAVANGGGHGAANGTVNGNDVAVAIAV
# Description: The effect of expression of asparagine synthetase genes on asparagine synthetase activity was measured in transgenic events of pMON79706 and pMON92870. Frozen, ground leaf tissue was aliquoted (200-400 mg) into wells from a precooled 96 deep-well plate. Protein was extracted in Buffer A (100 mM Hepes-OH, pH 8.0, 0.1 mM EDTA, 10 mM MgCl2, 2 mM aspartate, 0.5 mM DTT, 67 mM mercaptoethanol, 20% (v/v) glycerol, 0.1 mM ATP, 1% (v/v) P9599 (Sigma Company), 25 mM KCl). A small amount of sand was added to each well. Buffer A was then added to the leaf tissue in the wells at a ratio of 4:1 (buffer:tissue). The plates were then agitated in a paint shaker for 2 min. to mix the sample and then centrifuged at 5000×g for 10 minutes. The supernatant (100-200 μL) was desalted in a 96-well macro spin plate (SNS S025L, The Nest Group Inc., Southboro, Mass.) equilibrated in buffer A. The supernatant was then either assayed immediately or frozen in liquid nitrogen and maintained at −80° C. until used. To assay asparagine synthetase activity, desalted protein extracts (10-50 μL) were added to wells containing 100 μL assay solution (100 mM Hepes, pH 8.0, 10 mM MgCl2, 2 mM aspartate, 5 mM DTT, 10 mM ATP, 1 mM amino(oxy)acetic acid (aspartate amino transferase inhibitor), 1 mM aspartic semialdehyde (asparaginase inhibitor). To start the reaction, glutamine (final concentration of 2 mM for standard assay) was added to the solution, which was then mixed. The assay mixture was then incubated for 1 to 2 hours. The reaction was then stopped by the addition of an equal volume of 20% (w/v) trichloroacetic acid. The mixture was then filtered to remove precipitate and asparagine was measured by HPLC. Sample size was increased from 0.5 μL to 2.5 μL for HPLC, excitation wavelength was reduced from 340 nm to 235 nm, and fluorimeter gain was increased from 10 to 13. […]
# [2] = target: T2, Zea mays asparagine synthetase Zm AsnS2 (SEQ ID NO: 4, encoded by SEQ ID NO: 3) (Zea mays, UniProt B5U8J7); experiment: Kinetics of recombinant his-tagged, refolded maize asparagine synthetase AsnS2 (substrate titration, asparagine by HPLC); assay type: biochemical; settings: AsnS2 versus the other maize AsnS enzymes
# T2 construct: 606 aa
# T2 sequence (B5U8J7 1-606): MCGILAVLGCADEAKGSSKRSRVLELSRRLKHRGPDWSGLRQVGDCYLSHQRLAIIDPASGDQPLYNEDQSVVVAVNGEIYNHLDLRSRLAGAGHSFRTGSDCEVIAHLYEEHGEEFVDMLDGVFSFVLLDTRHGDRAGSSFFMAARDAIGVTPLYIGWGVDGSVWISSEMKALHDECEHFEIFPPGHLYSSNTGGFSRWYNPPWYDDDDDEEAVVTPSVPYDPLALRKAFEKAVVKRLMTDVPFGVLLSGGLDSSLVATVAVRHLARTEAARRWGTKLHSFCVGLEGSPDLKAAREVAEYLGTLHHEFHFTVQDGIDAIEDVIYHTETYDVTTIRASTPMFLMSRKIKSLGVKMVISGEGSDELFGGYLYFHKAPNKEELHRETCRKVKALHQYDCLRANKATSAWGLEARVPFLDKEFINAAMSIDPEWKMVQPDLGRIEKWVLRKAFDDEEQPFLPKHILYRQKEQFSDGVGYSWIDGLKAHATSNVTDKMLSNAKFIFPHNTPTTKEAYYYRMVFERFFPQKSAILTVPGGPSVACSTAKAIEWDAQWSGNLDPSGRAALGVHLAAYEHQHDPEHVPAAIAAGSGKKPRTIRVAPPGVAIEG
# Description: The effect of expression of asparagine synthetase genes on asparagine synthetase activity was measured in transgenic events of pMON79706 and pMON92870. Frozen, ground leaf tissue was aliquoted (200-400 mg) into wells from a precooled 96 deep-well plate. Protein was extracted in Buffer A (100 mM Hepes-OH, pH 8.0, 0.1 mM EDTA, 10 mM MgCl2, 2 mM aspartate, 0.5 mM DTT, 67 mM mercaptoethanol, 20% (v/v) glycerol, 0.1 mM ATP, 1% (v/v) P9599 (Sigma Company), 25 mM KCl). A small amount of sand was added to each well. Buffer A was then added to the leaf tissue in the wells at a ratio of 4:1 (buffer:tissue). The plates were then agitated in a paint shaker for 2 min. to mix the sample and then centrifuged at 5000×g for 10 minutes. The supernatant (100-200 μL) was desalted in a 96-well macro spin plate (SNS S025L, The Nest Group Inc., Southboro, Mass.) equilibrated in buffer A. The supernatant was then either assayed immediately or frozen in liquid nitrogen and maintained at −80° C. until used. […] The mixture was then filtered to remove precipitate and asparagine was measured by HPLC. […]
# [3] = substrate: NC(=O)CC[C@H](N)C(=O)O; experiment: Kinetics of recombinant his-tagged, refolded maize asparagine synthetase AsnS3 (substrate titration, asparagine by HPLC); assay type: biochemical, Zea mays; settings: other: Zm AsnS3, 100 mM Hepes, pH 8.0, 10 mM MgCl2
# Description: (§1) This example describes the cloning of the nucleotide sequence for AsnS1 (SEQ ID NO: 1), AsnS2 (SEQ ID NO: 3), AsnS3 (SEQ ID NO: 5) and AsnS4 (SEQ ID NO: 50) into E. coli expression vectors, as well as the expression, purification and kinetics of the recombinant forms of the four AsnS isoforms.
# (§2) These vectors are expected to produce recombinant proteins with C-terminal histidine tags.
# (§3) The E. coli expression vectors described in the previous paragraph were used to transform Rosetta DE5™ E. coli cells (Novagen). Transformed cells were transferred from solid LB media plates and grown in liquid LB media containing standard concentrations of kanomycin (50 μM) and chloramphenicol (25 μM) at 37° C. An overnight culture was used to inoculate a 25 mL culture, which was grown at 37° C. until mid log phase (OD600=0.40.6). Cells were then transferred to 20° C. for 30 min after which IPTG was added to a final concentration of 0.5 mM. The cells were then grown at 20° C. for 12 hours and cell pellets were harvested by centrifugation.
# (§4) The protein was recovered from the insoluble fraction while bound to a nickel column. Buffers used for the purification of recombinant AsnS were: […]
# [4] = substrate: N[C@@H](CC(=O)O)C(=O)O; experiment: as above; assay type: biochemical, Zea mays; settings: other: Zm AsnS3, 100 mM Hepes, pH 8.0, 10 mM MgCl2
# Description: as §1, §2, §3, §4
# [5] = substrate: Nc1ncnc2c1ncn2[C@@H]1O[C@H](COP(=O)(O)OP(=O)(O)OP(=O)(O)O)[C@@H](O)[C@H]1O; experiment: as above; assay type: biochemical, Zea mays; settings: other: Zm AsnS3, 100 mM Hepes, pH 8.0, 10 mM MgCl2
# Description: as §1, §2, §3, §4
# [6] = substrate: NC(=O)CC[C@H](N)C(=O)O; experiment: Kinetics of recombinant his-tagged, refolded maize asparagine synthetase AsnS2 (substrate titration, asparagine by HPLC); assay type: biochemical, Zea mays; settings: other: Zm AsnS2, 100 mM Hepes, pH 8.0, 10 mM MgCl2
# Description: as §1, §2, §3, §4
# [7] = substrate: N[C@@H](CC(=O)O)C(=O)O; experiment: as above; assay type: biochemical, Zea mays; settings: other: Zm AsnS2, 100 mM Hepes, pH 8.0, 10 mM MgCl2
# Description: as §1, §2, §3, §4
# [8] = substrate: Nc1ncnc2c1ncn2[C@@H]1O[C@H](COP(=O)(O)OP(=O)(O)OP(=O)(O)O)[C@@H](O)[C@H]1O; experiment: as above; assay type: biochemical, Zea mays; settings: other: Zm AsnS2, 100 mM Hepes, pH 8.0, 10 mM MgCl2
# Description: as §1, §2, §3, §4
# [9] = substrate: NC(=O)CC[C@H](N)C(=O)O; experiment: Kinetics of recombinant his-tagged, refolded maize asparagine synthetase AsnS1 (substrate titration, asparagine by HPLC); assay type: biochemical, Zea mays; settings: other: Zm AsnS1, 100 mM Hepes, pH 8.0, 10 mM MgCl2
# Description: as §1, §2, §3, §4
# [10] = substrate: N[C@@H](CC(=O)O)C(=O)O; experiment: as above; assay type: biochemical, Zea mays; settings: other: Zm AsnS1, 100 mM Hepes, pH 8.0, 10 mM MgCl2
# Description: as §1, §2, §3, §4
# [11] = substrate: Nc1ncnc2c1ncn2[C@@H]1O[C@H](COP(=O)(O)OP(=O)(O)OP(=O)(O)O)[C@@H](O)[C@H]1O; experiment: as above; assay type: biochemical, Zea mays; settings: other: Zm AsnS1, 100 mM Hepes, pH 8.0, 10 mM MgCl2
# Description: as §1, §2, §3, §4
molecule,measurement,setting,value
"NC(=O)CC[C@H](N)C(=O)O [Gln, glutamine]",Km,"[1]; 100 mM Hepes, pH 8.0, 10 mM MgCl2, read-out: Km(Gln)",233 µM
same,Km (Gln) for AsnS2 compared with the other enzymes,[2],several fold lower than the other enzymes
Nc1ncnc2c1ncn2[C@@H]1O[C@H](COP(=O)(O)OP(=O)(O)OP(=O)(O)O)[C@@H](O)[C@H]1O [ATP],Km,"[1]; read-out: Km(ATP), 100 mM Hepes, pH 8.0, 10 mM MgCl2",128 µM
"Zea mays asparagine synthetase Zm AsnS3 (SEQ ID NO: 6, encoded by SEQ ID NO: 5) (Zea mays) (protein, 588 aa) MCGILAVLGCSDWSQAKRARILACSRRLKHRGPDWSGLYQHEGNFLAQQRLAVVSPLSGDQPLFNEDRTVVVVANGEIYNHKNVRKQFTGTHNFSTGSDCEVIMPLYEKYGENFVDMLDGVFAFVLYDTRDRTYVAARDAIGVNPLYIGWGSDGSVWIASEMKALNEDCVRFEIFPPGHLYSSAGGGFRRWYTPHWFQEQVPRTPYQPLVLREAFEKAVIKRLMTDVPFGVLLSGGLDSSLVASVTKRHLVETEAAEKFGTELHSFVVGLEGSPDLKAAREVADYLGTIHHEFHFTVQDGIDAIEEVIYHDETYDVTTIRASTPMFLMARKIKSLGVKMVLSGEGSDELLGGYLYFHFAPNKEEFHRETCRKVKALHQYDCLRANKATSAWGLEVRVPFLDKEFINVAMGMDPEWKMYDKNLGRIEKWVMRKAFDDDEHPYLPKHILYRQKEQFSDGVGYNWIDGLKSFTEQQVTDEMMNNAAQMFPYNTPVNKEAYYYRMIFERLFPQDSARETVPWGPSIACSTPAAIEWVEQWKASNDPSGRFISSHDSAATDHTGGKPAVANGGGHGAANGTVNGKDVAVAIAV",Km,[3],423 µM
same,Km,[4],1200 µM
same,Km,[5],97 µM
"Zea mays asparagine synthetase Zm AsnS2 (SEQ ID NO: 4, encoded by SEQ ID NO: 3) (Zea mays) (protein, 606 aa) MCGILAVLGCADEAKGSSKRSRVLELSRRLKHRGPDWSGLRQVGDCYLSHQRLAIIDPASGDQPLYNEDQSVVVAVNGEIYNHLDLRSRLAGAGHSFRTGSDCEVIAHLYEEHGEEFVDMLDGVFSFVLLDTRHGDRAGSSFFMAARDAIGVTPLYIGWGVDGSVWISSEMKALHDECEHFEIFPPGHLYSSNTGGFSRWYNPPWYDDDDDEEAVVTPSVPYDPLALRKAFEKAVVKRLMTDVPFGVLLSGGLDSSLVATVAVRHLARTEAARRWGTKLHSFCVGLEGSPDLKAAREVAEYLGTLHHEFHFTVQDGIDAIEDVIYHTETYDVTTIRASTPMFLMSRKIKSLGVKMVISGEGSDELFGGYLYFHKAPNKEELHRETCRKVKALHQYDCLRANKATSAWGLEARVPFLDKEFINAAMSIDPEWKMVQPDLGRIEKWVLRKAFDDEEQPFLPKHILYRQKEQFSDGVGYSWIDGLKAHATSNVTDKMLSNAKFIFPHNTPTTKEAYYYRMVFERFFPQKSAILTVPGGPSVACSTAKAIEWDAQWSGNLDPSGRAALGVHLAAYEHQHDPEHVPAAIAAGSGKKPRTIRVAPPGVAIEG",Km,[6],110 µM
same,Km,[7],910 µM
same,Km,[8],125 µM
"Zea mays asparagine synthetase Zm AsnS1 (SEQ ID NO: 2, encoded by SEQ ID NO: 1) (Zea mays) (protein) MICDKCSLVRSFFVGRPRDITSLYKKAGSCRTMCGILAVLGVAEVSLAKRSRIIELSRRLRHRGPDWSGLHCHEDCYLAHQRLAIIDPTSGDQPLYNEDKTVVVTVNGEIYNHEELKAKLKTHEFQTGSDCEVIAHLYEEYGEEFVDMLDGMFSFVLLDTRDKSFIAARDAIGICPLYMGWGLDGSVWFSSEMKALSDDCERFITFPPGHLYSSKTGGLRRWYNPPWFSETVPSTPYNALFLREMFEKAVIKRLMTDVPFGVLLSGGLDSSLVASVASRHLNETKVDRQWGNKLHTFCIGLKGSPDLKAAREVADYLSTVHHEFHFTVQEGIDALEEVIYHIETYDVTTIRASTPMFLMSRKIKSLGVKMVISGEGSDEIFGGYLYFHKAPNKKEFHEETCRKIKALHLYDCLRANKATSAWGVEARVPFLDKSFISVAMDIDPEWKMIKRDLGRIEKWVIRNAFDDDERPYLPKHILYRQKEQFSDGVGYSWIDGLKDHASQHVSDSMMMNAGFVYPENTPTTKEGYYYRMIFEKFFPKPAARSTVPGGPSVACSTAKAVEWDASWSKNLDPSGRAALGVHDAAYEDTAGKTPASADPVSDKGLRPAIGESLGTPVASATAV",Km,[9],543 µM
same,Km,[10],980 µM
same,Km,[11],110 µM
